Where “and” joins values, the source holds several entries; their conditions need not be identical. Identical values can stand only once.

Common to all, as to test: ITC; PEX14 (1-104) (20-60 uM, concentration corrected with the fit) in the cell, peptide or fragment in the syringe; 25 °C, 20 mM Tris pH 7.5, 50 mM NaCl; one-site binding model; single runs of triplicates and their averages
Holding throughout (conditions): both partners purified
On the technique in general: ITC needs no label: the signal is the heat of the interaction.

One assay concerns the target T1, PEX5 W2 peptide (human).
T1 construct: 15-mer with the W2 WxxxF motif of human PEX5; source: synthetic peptide, bought: PSL (Peptide Specialty Laboratories)

In another assay the target is T2, PEX5 W3 peptide (human).
T2 construct: 15-mer with the W3 WxxxY motif of human PEX5; source: synthetic peptide, bought: PSL (Peptide Specialty Laboratories)

For another assay, the target named is T3, PEX5 W4 peptide (human).
T3 construct: 15-mer with the W4 WxxxY motif of human PEX5 (R183, Y185, Y188 are named in the text); source: synthetic peptide, bought: PSL (Peptide Specialty Laboratories)

B1: PEX14 NTD (1-104) (domain or fragment, human, UniProt O75381 1-104, looked up)
chain: MASSEQAEQPSQPSSTPGSENVLPREPLIATAVKFLQNSRVRQSPLATRRAFLKKKGLTDEEIDMAFQQSGTAADEPSSLGPATQVVPVQPPHLISQPYSPAGS
notes: human PEX14 (UniProtKB O75381), N-terminal domain, residues 1-104; also called PEX14 (1-104); source: E. coli BL21 (DE3), purified (Ni-NTA, SUMO cleavage, reverse Ni-NTA, SEC)
As for B1, the Kd (commonly the free concentration of one partner at which half of the binding sites on the other are occupied at equilibrium, for simple one-to-one binding) in the assay with PEX5 W2 peptide was 70.4 nM and 69.1 nM and 81.2 nM and 73.6 nM; in the assay with PEX5 W3 peptide it was 188 nM and 97.5 nM and 124 nM and 136 nM; with PEX5 W4 peptide, 2510 nM and 3260 nM and 3640 nM and 3140 nM.

The values above are taken from publication PMC11024197 (Nature Communications, 2024).
